T1: PUF4 RNA-binding domain (Saccharomyces cerevisiae, UniProt P25339 537-888)
T1 sequence: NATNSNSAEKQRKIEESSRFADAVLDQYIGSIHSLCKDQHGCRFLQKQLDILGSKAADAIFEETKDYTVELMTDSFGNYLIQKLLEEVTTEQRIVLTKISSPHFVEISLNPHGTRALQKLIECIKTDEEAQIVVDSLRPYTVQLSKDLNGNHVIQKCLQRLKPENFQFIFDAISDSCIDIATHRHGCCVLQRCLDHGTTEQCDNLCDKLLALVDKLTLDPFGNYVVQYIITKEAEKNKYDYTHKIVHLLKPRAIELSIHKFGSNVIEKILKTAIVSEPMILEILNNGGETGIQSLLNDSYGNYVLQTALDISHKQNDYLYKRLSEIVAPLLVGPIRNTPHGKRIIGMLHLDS


Target: T1, PUF4 RNA-binding domain
Test: Mg; RNA-MaP; 20 mM Na-HEPES pH 7.4, 30 mM KOAc, 0.75 mM MgCl2, 0.1% Tween-20, 5% glycerol, 0.1 mg/mL BSA, 2 mM DTT; 25 C; 0.0125-409.6 nM protein
Conditions: tags: N-His6-TEV cleaved; C-SNAP kept, Cy3B-labelled; label: tethered on chip by stalled RNA polymerase

Row | Binder | Kd [nM]
1 | UCUCUUUGUUAAUUAUCUCUU (ssRNA) [Ib_S1_P4E.1_K4.1_C4.1_H4.1_[A4T]_A4.1_[T5A]_F4.1_T4.1] | 43.5
2 | UCUCUUUAUAUAUAUUAGUUCUCUU (ssRNA) [Id_ii_S1_P4E.3_K4.2_C4.2_[C-2T]_[T-1A]_H4.2_A4.1_F4.1_T4.2] | 9.8
3 | UCUCUUGUUAUAUAUUAAUUCUCUU (ssRNA) [Id_ii_S1_P4E.3_K4.2_C4.2_[C-2G]_H4.2_A4.1_F4.1_T4.2_[G10A]] | 21
4 | UCUCUUUUUAUAUAUUAACUCUCUU (ssRNA) [Id_ii_S1_P4E.3_K4.2_C4.2_[C-2T]_H4.2_A4.1_F4.1_T4.2_[G10A]_[T11C]] | 31.8
5 | UCUCUUUGUAUAUAUUAACUCUCUU (ssRNA) [Id_ii_S1_P4E.3_K4.2_C4.2_[C-2T]_[T-1G]_H4.2_A4.1_F4.1_T4.2_[G10A]_[T11C]] | 2.38
6 | UCUCUUUCUAUAUAUUAAGUCUCUU (ssRNA) [Id_ii_S1_P4E.3_K4.2_C4.2_[C-2T]_[T-1C]_H4.2_A4.1_F4.1_T4.2_[G10A]_[T11G]] | 130
7 | UCUCUUUGUAUAUAUUAAUUCUCUU (ssRNA) [Id_ii_S1_P4E.3_K4.2_C4.2_[C-2T]_[T-1G]_H4.2_A4.1_F4.1_T4.2_[G10A]] | 4.75
8 | UCUCUUUGUGUGUUAUCUCUU (ssRNA) [Ib_S1_P4E.1_K4.1_C4.1_H4.1_[A4G]_A4.1_[A6G]_F4.1_T4.1] | 43.8
9 | UCUCUUGCUAUAUAUUACCUCUCUU (ssRNA) [Id_ii_S1_P4E.3_K4.2_C4.2_[C-2G]_[T-1C]_H4.2_A4.1_F4.1_T4.2_[G10C]_[T11C]] | 61.4
10 | UCUCUUGCUAUAUAUUAUGUCUCUU (ssRNA) [Id_ii_S1_P4E.3_K4.2_C4.2_[C-2G]_[T-1C]_H4.2_A4.1_F4.1_T4.2_[G10T]_[T11G]] | 42
11 | UCUCUUUGUUCAUUAUCUCUU (ssRNA) [Ib_S1_P4E.1_K4.1_C4.1_H4.1_[A4T]_A4.1_[T5C]_F4.1_T4.1] | 21.1
12 | UCUCUUUCUAUAUAUUAAAUCUCUU (ssRNA) [Id_ii_S1_P4E.3_K4.2_C4.2_[C-2T]_[T-1C]_H4.2_A4.1_F4.1_T4.2_[G10A]_[T11A]] | 61.2
13 | UCUCUUUCUAUAUAUUACGUCUCUU (ssRNA) [Id_ii_S1_P4E.3_K4.2_C4.2_[C-2T]_[T-1C]_H4.2_A4.1_F4.1_T4.2_[G10C]_[T11G]] | 30.7
14 | UCUCUUUUUAUAUAUUACCUCUCUU (ssRNA) [Id_ii_S1_P4E.3_K4.2_C4.2_[C-2T]_H4.2_A4.1_F4.1_T4.2_[G10C]_[T11C]] | 26.2
15 | UCUCUUUAUAUAUAUUACGUCUCUU (ssRNA) [Id_ii_S1_P4E.3_K4.2_C4.2_[C-2T]_[T-1A]_H4.2_A4.1_F4.1_T4.2_[G10C]_[T11G]] | 21.9
16 | UCUCUUGUUAUAUAUUACCUCUCUU (ssRNA) [Id_ii_S1_P4E.3_K4.2_C4.2_[C-2G]_H4.2_A4.1_F4.1_T4.2_[G10C]_[T11C]] | 13

Row | Binder | Kd [nM]
17 | UCUCUUGCUAUAUAUUAUCUCUCUU (ssRNA) [Id_ii_S1_P4E.3_K4.2_C4.2_[C-2G]_[T-1C]_H4.2_A4.1_F4.1_T4.2_[G10T]_[T11C]] | 38.5
18 | UCUCUUUGUAUAUAUUAGCUCUCUU (ssRNA) [Id_ii_S1_P4E.3_K4.2_C4.2_[C-2T]_[T-1G]_H4.2_A4.1_F4.1_T4.2_[T11C]] | 3.46
19 | UCUCUUUCUAUAUAUUAUUUCUCUU (ssRNA) [Id_ii_S1_P4E.3_K4.2_C4.2_[C-2T]_[T-1C]_H4.2_A4.1_F4.1_T4.2_[G10T]] | 21.6
20 | UCUCUUGUUAUAUAUUAUCUCUCUU (ssRNA) [Id_ii_S1_P4E.3_K4.2_C4.2_[C-2G]_H4.2_A4.1_F4.1_T4.2_[G10T]_[T11C]] | 12.5
21 | UCUCUUGUUAUAUAUUACUUCUCUU (ssRNA) [Id_ii_S1_P4E.3_K4.2_C4.2_[C-2G]_H4.2_A4.1_F4.1_T4.2_[G10C]] | 16.9
22 | UCUCUUUUUAUAUAUUAUGUCUCUU (ssRNA) [Id_ii_S1_P4E.3_K4.2_C4.2_[C-2T]_H4.2_A4.1_F4.1_T4.2_[G10T]_[T11G]] | 17.9
23 | UCUCUUGUUAUAUAUUAUUUCUCUU (ssRNA) [Id_ii_S1_P4E.3_K4.2_C4.2_[C-2G]_H4.2_A4.1_F4.1_T4.2_[G10T]] | 22.3
24 | UCUCUUUAUAUAUAUUAUCUCUCUU (ssRNA) [Id_ii_S1_P4E.3_K4.2_C4.2_[C-2T]_[T-1A]_H4.2_A4.1_F4.1_T4.2_[G10T]_[T11C]] | 24.5
25 | UCUCUUUUUAUAUAUUACGUCUCUU (ssRNA) [Id_ii_S1_P4E.3_K4.2_C4.2_[C-2T]_H4.2_A4.1_F4.1_T4.2_[G10C]_[T11G]] | 30.1
26 | UCUCUUGUUAUAUAUUAUGUCUCUU (ssRNA) [Id_ii_S1_P4E.3_K4.2_C4.2_[C-2G]_H4.2_A4.1_F4.1_T4.2_[G10T]_[T11G]] | 15.3
27 | UCUCUUUAUAUAUAUUACUUCUCUU (ssRNA) [Id_ii_S1_P4E.3_K4.2_C4.2_[C-2T]_[T-1A]_H4.2_A4.1_F4.1_T4.2_[G10C]] | 20.6
28 | UCUCUUUGUAUAUAUUAGUUCUCUU (ssRNA) [Id_ii_S1_P4E.3_K4.2_C4.2_[C-2T]_[T-1G]_H4.2_A4.1_F4.1_T4.2] | 3.67
29 | UCUCUUUGUCAAUUAUCUCUU (ssRNA) [Ib_S1_P4E.1_K4.1_C4.1_H4.1_[A4C]_A4.1_[T5A]_F4.1_T4.1] | 134
30 | UCUCUUGCUAUAUAUUAUAUCUCUU (ssRNA) [Id_ii_S1_P4E.3_K4.2_C4.2_[C-2G]_[T-1C]_H4.2_A4.1_F4.1_T4.2_[G10T]_[T11A]] | 57.3
31 | UCUCUUGCUAUAUAUUACUUCUCUU (ssRNA) [Id_ii_S1_P4E.3_K4.2_C4.2_[C-2G]_[T-1C]_H4.2_A4.1_F4.1_T4.2_[G10C]] | 30.6
32 | UCUCUUGCUAUAUAUUACAUCUCUU (ssRNA) [Id_ii_S1_P4E.3_K4.2_C4.2_[C-2G]_[T-1C]_H4.2_A4.1_F4.1_T4.2_[G10C]_[T11A]] | 44.4
